One data set has as its target T1, human γD crystallin (Homo sapiens, UniProt P07320).
T1 construct: made in house
T1 sequence (P07320 1-174): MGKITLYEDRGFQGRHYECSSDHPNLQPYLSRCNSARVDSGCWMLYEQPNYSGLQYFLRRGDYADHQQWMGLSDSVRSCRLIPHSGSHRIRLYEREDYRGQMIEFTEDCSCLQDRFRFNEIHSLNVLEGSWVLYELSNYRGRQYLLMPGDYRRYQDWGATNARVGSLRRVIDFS
Nature of the data set: αB crystallin protein pin array with γD crystallin. Conditions: unheated γD crystallin; similar maxima pre-heated 45° C. In kind it is binding. The text has this:
(§1) Synthesis of Pins, binding and detection of peptides binding to ligand proteins. The αB crystallin protein pin array was used to measure the interaction between peptides and chaperone target proteins including bovine βH crystallin, human γD crystallin, equine alcohol dehydrogenase (ADH) and porcine citrate synthase (CS) as described (FIG. 12). Ghosh and Clark, Protein Sci 14: 684-95, 2005.
(§2) Refer to the methods section for detailed protocols. The absorbance corresponding to the blue coloration in each well was measured at λ=450 nm and plotted against the amino acid sequence of the corresponding peptide in that well (FIGS. 13 and 14). Wells containing peptides that have strong interactions with target proteins are dark blue and wells containing peptides that have weak or no interaction with target proteins are light blue or clear.
(§3) The purity of the target proteins used in the pin array assays, bovine βH crystallin, human γD crystallin, equine alcohol dehydrogenase (ADH) and porcine citrate synthase (CS) were determined to be >90% by SDS-PAGE. In addition, primary antibodies for each target protein were specific to that target protein and consequently contaminating proteins that may bind to the peptides will not be detected. Eighty-four sequential and overlapping peptide fragments corresponding to residues 1-175 of human αB crystallin were synthesized employing a simultaneous peptide synthesis strategy developed by Geysen, called Multipin Peptide Synthesis (Mimotopes, San Diego, Calif.). Geysen, Southeast Asian J Trop Med Public Health 21: 523-33, 1990; Chin et al., J Org Chem 62: 538-539, 1997. Peptides were immobilized on derivatized polyethylene pins arranged in a microtiter ELISA plate format. Each peptide was eight amino acids in length and consecutive peptides were offset by two amino acids. All peptides were bound covalently to the surface of the plastic pins. The first peptide was 1MDIAIHHP8 and the last peptide was 168PAVTAAPK175 for human αB crystallin.
(§4) Ghosh and Clark, Protein Sci 14: 684-95, 2005. […] The intensity of the blue color in the wells was measured at 450 nm using an ELISA plate-reader (BioTek, Winooski, Vt.). The intensity of the blue color (plotted on the X-axis) was a measure of the interaction between αB crystallin peptides (plotted on the Y-axis) and target proteins. To measure the effect of temperature on the interactions between interactive peptides and the target proteins, the target proteins were heated in a water-bath at 45° C. for fifteen minutes prior to use. Pin arrays are unable to differentiate between monomers, dimers or oligomers of target proteins that exist in solution. Instead, pin arrays are very sensitive detectors of interactions between individual peptides and the entire population (monomers, dimers or oligomers) of specific target proteins that may exist in solution under specific conditions. Each target protein was assayed two to five times. A single pin array was used for all experiments and no change in interactions was observed after more than thirty repetitions. The last three peptides of the protein pin array, 163REEKPAVT170, 165EKPAVTAA172, 167PAVTAAPK174, correspond to the epitope (163REEKPAVTAAPKK175) recognized by the primary antibody for human αB crystallin. A positive reaction is observed for these three peptides in the absence of human αB crystallin as the ligand due to direct binding of the anti-human αB crystallin antibody to these three peptides. The loss of efficiency for the pin array was measured using this assay. The loss of efficiency for the pin array was determined to be <5% by after more than 30 assays.
When βH crystallin was replaced with γD crystallin, a native protein constituent of lens cytoplasm from the same gene family as the β crystallins, as the ligand in the pin array, twelve interactive sequences were identified (FIG. 14: striped bars). […]

For data set [1] the following is noted: as provided by manufacturer (Mimotopes); cited from earlier work.
Another data set has as its target beta amyloid (Homo sapiens, UniProt P05067). Nature of the data set: αB crystallin protein pin array, binding of beta amyloid. Conditions: immobilized 8-mer peptide; absorption at 450 nm. The text has this: αB Crystallin peptides that bind the target protein beta-amyloid were identified by screening an αB crystallin protein pin array, which provides a systematic method for evaluating interactions between peptides corresponding to residues 1-175 of human αB crystallin and selected target proteins in a parallel and simultaneous manner.
Peptides were synthesized on derivatized polyethylene pins arranged in a microtiter plate format. Each peptide was 8 amino acids in length and consecutive peptides were offset by 2 amino acids. All peptides were covalently bonded to the surface plastic pins. The first immobilized peptide was 1MDIAIHHP8 and the last peptide was 168PAVTAAPK175 for the human αB crystallin.
After synthesis, the pins were pre-coated at room temperature with 2% Bovine Serum Albumin (BSA), 0.1% Tween-20 and 0.1% Sodium azide in 10 mM phosphate buffered saline pH 7.2 (PBS) for 1 hr, and washed three times for 10 mins each with 10 mM PBS. To screen for binding to the peptides, fixed concentrations of the target protein beta amyloid was dissolved in 10 mM PBS, containing 0.05% Tween-20, added to each well and incubated for 1 hr at room temperature. The pin array was washed three times for 10 mins each with 10 mM PBS, containing 0.05% Tween-20. Monoclonal or polyclonal primary antibodies for the target protein beta amyloid was diluted into PBS buffer, added to each well and incubated for 1 hr at room temperature. Subsequently, the pin array was washed three times for 10 mins each with 10 mM PBS containing 0.05% Tween-20. Anti-rabbit horse-radish peroxidase conjugate secondary antibodies was diluted into PBS buffer, added to each well and incubated for 1 hr at room temperature. The pin array was washed three times for 10 mins each with 10 mM PBS containing 0.05% Tween-20. A chromogenic substrate of horse-radish peroxidase 3,3′,5,5′-Tetramethylbenzidine (TMB) (Pharmingen, San Diego, Calif.) which is colorless was added, and the reaction was carried out for 45 min.
The reaction was stopped by adding 6N sulfuric acid, which changes the color from blue to yellow. The absorption at 450 nm was measured by an ELISA reader (BioTek, Winooski, Vt.).
The pin array was regenerated by sonication in a water bath (VWR Aquasonic, West Chester, Pa.) with 100 mM PBS, containing 1% Sodium dodecyl sulfate (SDS) and 0.1% 2-Mercaptoethanol@60° C. for 10 mins. Next, the pin array was rinsed three times in deionized water, preheated to 60° C. for 30 secs each time, and shaken in water preheated at 60° C. for 30 min. The pin array was then washed with methanol at 60° C. for 15 secs and air-dried and stored @−20° C. for future use. Each target protein was assayed 2-5 times against the human αB crystallin protein pin array peptides to verify the reproducibility of the results. Peptides numbered 5, 7, 8, 9, 13, 19, 22, 23, 24, 27, 35, 38, 45, 51, 52, 56, 57, 61, 66, 71, 72, and 79 in Table 2 reproducibly tested positive in the protein pin assay.

The target in data set [2] is T2, equine alcohol dehydrogenase (ADH) (Equus caballus, UniProt P00327).
T2 construct: purchased Sigma-Aldrich, MO 05646
Nature of the data set: αB crystallin protein pin array with alcohol dehydrogenase. In kind it is binding. The conditions noted are these: ADH as ligand in the pin array.
From the text: as §1, §2, §3, §4
The pattern of absorbance at k=450 nm when αB crystallin peptides were assayed with unheated and pre-heated ADH was similar to the absorbance pattern obtained with unheated and pre-heated βH/γD crystallin (FIG. 17). […]

The next data set deals with bovine βH crystallin. Nature of the data set: αB crystallin protein pin array with βH crystallin. The format is binding. The conditions noted are these: unheated βH crystallin, 23° C.; similar maxima pre-heated 45° C.
From the text: as §1, §2, §3, §4
Protein pin arrays enabled the identification of interactive sequences necessary for the chaperone activity of human αB crystallin. Interactions between immobilized 8-mer human αB crystallin peptides and unheated and pre-heated βH crystallin, a natural protein constitute of lens cells, were measured as absorbances at λ=450 nm at 23° C. […]

Data set [3] has as its target T3, porcine citrate synthase (CS) (Sus scrofa, UniProt P00889).
T3 construct: purchased Roche Diagnostics, IN 103 381
T3 sequence (P00889 28-464): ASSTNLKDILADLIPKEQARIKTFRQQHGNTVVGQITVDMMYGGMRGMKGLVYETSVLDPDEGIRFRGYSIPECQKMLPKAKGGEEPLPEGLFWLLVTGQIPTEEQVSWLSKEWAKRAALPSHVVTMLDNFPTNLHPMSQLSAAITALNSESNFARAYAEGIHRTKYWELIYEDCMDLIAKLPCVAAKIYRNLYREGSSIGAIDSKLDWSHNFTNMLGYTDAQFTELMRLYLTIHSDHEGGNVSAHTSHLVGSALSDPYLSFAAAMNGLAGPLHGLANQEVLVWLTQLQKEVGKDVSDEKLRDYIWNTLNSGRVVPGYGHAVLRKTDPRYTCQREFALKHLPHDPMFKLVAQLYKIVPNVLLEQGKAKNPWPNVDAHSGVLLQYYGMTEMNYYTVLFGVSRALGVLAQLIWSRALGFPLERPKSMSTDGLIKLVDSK
Description: αB crystallin protein pin array with citrate synthase. In kind it is binding. Conditions: CS as target protein in the pin array.
From the text: as §1, §2, §3, §4
The pattern of absorbance at λ=450 nm when αB crystallin peptides were assayed with unheated and pre-heated CS was similar to the absorbance pattern obtained with unheated and pre-heated βH/γD crystallin and ADH (FIG. 18). […]

T2 sequence (P00327 whole entry): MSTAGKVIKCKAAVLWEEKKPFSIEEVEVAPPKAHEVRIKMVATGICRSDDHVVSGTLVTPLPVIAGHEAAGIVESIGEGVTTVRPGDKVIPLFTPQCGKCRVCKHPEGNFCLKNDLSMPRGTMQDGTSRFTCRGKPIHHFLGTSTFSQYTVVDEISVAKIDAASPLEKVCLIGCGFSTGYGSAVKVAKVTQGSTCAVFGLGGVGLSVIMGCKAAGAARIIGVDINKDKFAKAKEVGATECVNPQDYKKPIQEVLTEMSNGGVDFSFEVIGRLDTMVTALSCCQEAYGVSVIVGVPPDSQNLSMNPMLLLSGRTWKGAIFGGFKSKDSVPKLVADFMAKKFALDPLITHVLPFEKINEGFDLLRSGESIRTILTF

Regarding DQFFGEHL [Peptide 13], the “absorbance at 450 nm, interaction with γD crystallin” value (from here on “absorbance … with γD crystallin”) with human γD crystallin is “maximum absorbances”. In addition, the Hydrophobicity in data set [1] was 0.47. In addition, the “binding of beta amyloid in the protein pin assay” value (“binding of beta amyloid” below) in the data set with beta amyloid was “positive”.
For the sequence EFHRKYRI [Peptide 59], the “absorbance … with γD crystallin” value in the data set with human γD crystallin is reported as “maximum absorbances”. The Hydrophobicity in data set [1] is listed as 0.13.
Regarding FFGEHLLE [Peptide 14], in data set [2], the “absorbance at 450 nm, interaction with ADH” value (shortened to “absorbance … with ADH”) was “Maximum absorbances”. The Hydrophobicity in data set [1] was 0.73.
With FISREFHR [Peptide 57], the “absorbance at 450 nm, interaction with βH crystallin” value (shortened to “absorbance … with βH crystallin”) in the data set on bovine βH crystallin was “Maximum absorbances”. Also, the Hydrophobicity in data set [1] is reported as 0.35. Also, the “absorbance at 450 nm, interaction with CS” value (shortened to “absorbance … with CS”) in data set [3] was “absorbance maxima”. For the same sequence, the “binding of beta amyloid” value with beta amyloid is reported as “positive”.
In the case of FPFHSPSR [Peptide 8], in data set [1], the Hydrophobicity is recorded as 0.51. Further, the “absorbance … with CS” value in data set [3] is listed as “absorbance maxima”. The “binding of beta amyloid” value with beta amyloid is “positive”.
With FYLRPPSF [Peptide 24], the “absorbance … with βH crystallin” value in the data set on bovine βH crystallin is recorded as “Maximum absorbances”. Besides, the “absorbance … with γD crystallin” value with human γD crystallin is on record as “maximum absorbances”. Further, the Hydrophobicity in data set [1] is listed as 0.83. For the same sequence, in data set [3], the “absorbance … with CS” value is reported as “absorbance maxima”. In the data set with beta amyloid, the “binding of beta amyloid” value is “positive”.
For the sequence GVLTVNGP [Peptide 71], in the data set with bovine βH crystallin, the “absorbance … with βH crystallin” value is reported as “Maximum absorbances”. Moreover, in the data set with human γD crystallin, the “absorbance … with γD crystallin” value is reported as “maximum absorbances”. Also, in data set [2], the “absorbance … with ADH” value is reported as “Maximum absorbances”. The Hydrophobicity in data set [1] was 0.57. The “binding of beta amyloid” value with beta amyloid is “positive”.
On to HGFISREF [Peptide 56], for which, in the data set with human γD crystallin, the “absorbance … with γD crystallin” value was “maximum absorbances”. The Hydrophobicity in data set [1] is 0.48. For the same sequence, in the data set with beta amyloid, the “binding of beta amyloid” value is recorded as “positive”.
Take IAIHHPWI [Peptide 2]: the “absorbance … with γD crystallin” value with human γD crystallin is listed as “maximum absorbances”. Also, in data set [1], the Hydrophobicity is reported as 1.12.
As for LFPTSTSL [Peptide 19], the “absorbance … with ADH” value in data set [2] is “Maximum absorbances”. Further, the Hydrophobicity in data set [1] is 0.79. In the data set with beta amyloid, the “binding of beta amyloid” value was “positive”.
LRAPSWFD [Peptide 28]: the Hydrophobicity in data set [1] is listed as 0.62. The “absorbance … with CS” value in data set [3] was “absorbance maxima”.
In the case of LRPPSFLR [Peptide 25], in data set [2], the “absorbance … with ADH” value is listed as “Maximum absorbances”. Besides, the Hydrophobicity in data set [1] was 0.57.
As to LTVNGPRK [Peptide 72], the Hydrophobicity in data set [1] is recorded as 0.16. The “absorbance … with CS” value in data set [3] is “absorbance maxima”. In the data set with beta amyloid, the “binding of beta amyloid” value is “positive”.
In the case of PFFPFHSP [Peptide 7], the “absorbance … with γD crystallin” value with human γD crystallin was “maximum absorbances”. Further, the “absorbance … with ADH” value in data set [2] was “Maximum absorbances”. Besides, the Hydrophobicity in data set [1] was 0.95. Besides, in the data set with beta amyloid, the “binding of beta amyloid” value is “positive”.
As to RLEKDRFS [Peptide 35], the “absorbance … with βH crystallin” value in the data set on bovine βH crystallin is recorded as “Maximum absorbances”. Further, the “absorbance … with ADH” value in data set [2] is “Maximum absorbances”. Moreover, in data set [1], the Hydrophobicity was −0.12. In addition, the “binding of beta amyloid” value in the data set with beta amyloid is listed as “positive”.
Regarding RTIPITRE [Peptide 79], in the data set with bovine βH crystallin, the “absorbance … with βH crystallin” value was “Maximum absorbances”. In data set [2], the “absorbance … with ADH” value was “Maximum absorbances”. In addition, the Hydrophobicity in data set [1] is 0.27. Besides, the “absorbance … with CS” value in data set [3] is “absorbance maxima”. In addition, the “binding of beta amyloid” value with beta amyloid is listed as “positive”.
For the sequence SFLRAPSW [Peptide 27], the “absorbance … with γD crystallin” value in the data set with human γD crystallin was “maximum absorbances”. Further, the Hydrophobicity in data set [1] is 0.71. In addition, in the data set with beta amyloid, the “binding of beta amyloid” value is recorded as “positive”.
With SREFHRKY [Peptide 58], the “absorbance … with ADH” value in data set [2] is reported as “Maximum absorbances”. For the same sequence, the Hydrophobicity in data set [1] is −0.1.

Values taken from patent US20070185028A1, “Compositions and methods for treatment of protein misfolding and protein aggregation diseases” (priority 2004, published 2007).
